Target: T1, human IL-10 receptor (hIL-10R alpha and beta chains) on HEK-Blue IL-10 reporter cells (human, UniProt Q13651 22-578; Q08334 20-325)
T1 sequence 1: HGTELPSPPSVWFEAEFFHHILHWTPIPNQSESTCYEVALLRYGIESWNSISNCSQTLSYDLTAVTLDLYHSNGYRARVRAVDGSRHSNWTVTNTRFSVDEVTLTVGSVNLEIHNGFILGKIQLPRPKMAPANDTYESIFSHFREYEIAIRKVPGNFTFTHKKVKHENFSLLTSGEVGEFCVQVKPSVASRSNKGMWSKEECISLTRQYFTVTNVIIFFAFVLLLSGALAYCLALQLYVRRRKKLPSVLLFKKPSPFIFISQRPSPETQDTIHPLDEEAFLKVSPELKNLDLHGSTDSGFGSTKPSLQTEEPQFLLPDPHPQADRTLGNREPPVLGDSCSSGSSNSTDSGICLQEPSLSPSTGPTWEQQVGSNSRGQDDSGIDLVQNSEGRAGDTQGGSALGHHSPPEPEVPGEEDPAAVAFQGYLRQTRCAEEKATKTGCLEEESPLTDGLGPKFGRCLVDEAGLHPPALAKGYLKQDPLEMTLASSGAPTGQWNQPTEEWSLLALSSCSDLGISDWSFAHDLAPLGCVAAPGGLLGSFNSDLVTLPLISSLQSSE
T1 sequence 2: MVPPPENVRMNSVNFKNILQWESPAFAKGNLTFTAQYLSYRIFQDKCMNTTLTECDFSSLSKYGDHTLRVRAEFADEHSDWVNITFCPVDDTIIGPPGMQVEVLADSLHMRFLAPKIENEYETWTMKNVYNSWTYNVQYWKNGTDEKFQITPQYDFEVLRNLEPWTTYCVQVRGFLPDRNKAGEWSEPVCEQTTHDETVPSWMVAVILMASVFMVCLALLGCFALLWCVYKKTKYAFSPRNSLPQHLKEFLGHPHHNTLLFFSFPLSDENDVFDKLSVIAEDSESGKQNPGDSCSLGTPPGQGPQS
Experiment: cell-based or functional assay

Binder	Abs 630 (25 nM)	Abs 630 (100 nM)
IL10R binding molecule of SEQ ID NO: 346 (bispecific antibody) QVQLQESGGGSVQAGGSLRLSCAASGYSYSSYCMGWFRQAPGKEREGVATIDSDGMTRYADSVKGRFTISKDNAKNTLYLQMNSLKPEDTAMYYCAAPLYDCDSGAVGRNPPYWGQGTQVTVSSGGGSQVQLQESGGGSVQAGGSLRLSCAASGYSNCSYDMTWYRQAPGKEREFVSAIHSDGSTRYADSVKGRFFISQDNAKNTVYLQMNSLKPEDTAMYYCKTDPLHCRAHGGSWYSVRANYWGQGTQVTVSSASHHHHHH	0.43 Abs 630	0.35 Abs 630
IL10R binding molecule of SEQ ID NO: 347 (bispecific antibody) QVQLQESGGGSVQTGGSLRLSCAASGYTYLRGCMGWFRQAPGKEREGVAVMDVVGDRRSYIDSVKGRFTISRDNAANSVYLQMDNLKPEDTAMYYCTAGPNCVGWRSGLDYWGQGTQVTVSSGGGSQVQLQESGGGSVQAGGSLRLSCAASRYLYSIDYMAWFRQSPGKEREPVAVIYTASGATFYPDSVKGRFTISQDNAKMTVYLQMNSLKSEDTAMYYCAAVRKTDSYLFDAQSFTYWGQGTQVTVSSASHHHHHH	0.45 Abs 630	0.35 Abs 630
IL10R binding molecule of SEQ ID NO: 348 (bispecific antibody) QVQLQESGGGSVQTGGSLRLSCAASGYTYLRGCMGWFRQAPGKEREGVAVMDVVGDRRSYIDSVKGRFTISRDNAANSVYLQMDNLKPEDTAMYYCTAGPNCVGWRSGLDYWGQGTQVTVSSGGGSQVQLQESGGGSVQAGGSLRLSCAASRFTYSSYCMGWFRQAPGKEREGVASIDSDGSTSYTDSVKGRFTISKDNAKNTLYLQMNSLKPEDTAMYYCALDLMSTVVPGFCGFLLSAGMDYWGKGTQVTVSSASHHHHHH	0.46 Abs 630	0.36 Abs 630
IL10R binding molecule of SEQ ID NO: 349 (bispecific antibody) QVQLQESGGGSVQTGGSLRLSCAASGYTYLRGCMGWFRQAPGKEREGVAVMDVVGDRRSYIDSVKGRFTISRDNAANSVYLQMDNLKPEDTAMYYCTAGPNCVGWRSGLDYWGQGTQVTVSSGGGSQVQLQESGGGSVQAGGSLRLSCAASGYTYSMYCMGWFRQAPGKEREGVAQINSDGSTSYADSVKGRFTISKDNAKNTLYLQMNSLKPEDTAMYYCAADSRVYGGSWYERLCGPYTYEYNYWGQGTQVTVSSASHHHHHH	0.46 Abs 630	0.38 Abs 630
IL10R binding molecule of SEQ ID NO: 264 (bispecific antibody) QVQLQESGGGSVQAGGSLRLSCAASRFTYSSYCMGWFRQAPGKEREGVASIDSDGSTSYTDSVKGRFTISKDNAKNTLYLQMNSLKPEDTAMYYCALDLMSTVVPGFCGFLLSAGMDYWGKGTQVTVSSGGGSQVQLQESGGGSVQAGGSLRLSCAASGYTYSSYCMGWFRQAPGKEREGVAHIDSDGSTSYADSVKGRFTISKDNAKNTLYLQMNSLKPEDTAMYYCAADPIPGPGYCDGGPNKYWGQGTQVTVSSASHHHHHH	1.52 Abs 630	0.67 Abs 630
IL10R binding molecule of SEQ ID NO: 350 (bispecific antibody) QVQLQESGGGSVQTGGSLRLSCAASGYTYLRGCMGWFRQAPGKEREGVAVMDVVGDRRSYIDSVKGRFTISRDNAANSVYLQMDNLKPEDTAMYYCTAGPNCVGWRSGLDYWGQGTQVTVSSGGGSQVQLQESGGGSVQAGGSLRLSCAVSGYAYSTYCMGWFRQAPGKEREGVAAIDSGGSTSYADSVKGRFTISKDNAKNTLYLRMNSLKPEDTAMYYCAAVPPPPDGGSCLFLGPEIKVSKADFRYWGQGTQVTVSSASHHHHHH	0.43 Abs 630	0.35 Abs 630
IL10R binding molecule of SEQ ID NO: 351 (bispecific antibody) QVQLQESGGGSVQTGGSLRLSCAASGYTYLRGCMGWFRQAPGKEREGVAVMDVVGDRRSYIDSVKGRFTISRDNAANSVYLQMDNLKPEDTAMYYCTAGPNCVGWRSGLDYWGQGTQVTVSSGGGSQVQLQESGGGSVQAGGSLRLSCTVSGYTYSSNCMGWFRQAPGKEREGVATIYTGGGNTYYADSVKGRFTISQDNAKNTVYLQMNNLKPEDTAMYYCAAEPLSRVYGGSCPTPTFDYWGQGTQVTVSSASHHHHHH	0.43 Abs 630	0.34 Abs 630
IL10R binding molecule of SEQ ID NO: 352 (bispecific antibody) QVQLQESGGGSVQTGGSLRLSCAASGYTYLRGCMGWFRQAPGKEREGVAVMDVVGDRRSYIDSVKGRFTISRDNAANSVYLQMDNLKPEDTAMYYCTAGPNCVGWRSGLDYWGQGTQVTVSSGGGSQVQLQESGGGSVQAGGSLRLSCGASGYTYSSYCMGWFRQVPGKEREGVAVIDSDGSTSYADSVKGRFTISKDNGKNTLYLQMNSLKPEDTAMYYCAADLGHYRPPCGVLYLGMDYWGKGTQVTVSSASHHHHHH	0.54 Abs 630	0.65 Abs 630
IL10R binding molecule of SEQ ID NO: 353 (bispecific antibody) QVQLQESGGGSVQTGGSLRLSCAASGYTYLRGCMGWFRQAPGKEREGVAVMDVVGDRRSYIDSVKGRFTISRDNAANSVYLQMDNLKPEDTAMYYCTAGPNCVGWRSGLDYWGQGTQVTVSSGGGSQVQLQESGGGSVQAGGSLRLSCAASGYSNCSYDMTWYRQAPGKEREFVSAIHSDGSTRYADSVKGRFFISQDNAKNTVYLQMNSLKPEDTAMYYCKTDPLHCRAHGGSWYSVRANYWGQGTQVTVSSASHHHHHH	0.56 Abs 630	0.61 Abs 630
IL10R binding molecule of SEQ ID NO: 265 (bispecific antibody) QVQLQESGGGSVQAGGSLRLSCAASRFTYSSYCMGWFRQAPGKEREGVASIDSDGSTSYTDSVKGRFTISKDNAKNTLYLQMNSLKPEDTAMYYCALDLMSTVVPGFCGFLLSAGMDYWGKGTQVTVSSGGGSQVQLQESGGGSVQAGGSLRLSCAASRYTYNSYCMGWFRQAPGKEREGVATIDSDGMTRYADSVKGRFTISKDNAKNTLYLQMNSLKPEDTAMYYCAADADCTIAAMTTNPLGQGTQVTVSSASHHHHHH	0.54 Abs 630	0.46 Abs 630
IL10R binding molecule of SEQ ID NO: 266 (bispecific antibody) QVQLQESGGGSVQAGGSLRLSCAASRFTYSSYCMGWFRQAPGKEREGVASIDSDGSTSYTDSVKGRFTISKDNAKNTLYLQMNSLKPEDTAMYYCALDLMSTVVPGFCGFLLSAGMDYWGKGTQVTVSSGGGSQVQLQESGGGSVQAGGSLRLSCTVSRYTASVNYMGWFRQAPGKEREGVATIFTGAGTTYYANSVKGRFTISRDNAKNTAYLQMNSLKPEDTAIYYCAVDFRGGLLYRPAYEYTYRGQGTQVTVSSASHHHHHH	0.49 Abs 630	0.39 Abs 630
IL10R binding molecule of SEQ ID NO: 267 (bispecific antibody) QVQLQESGGGSVQAGGSLRLSCAASRFTYSSYCMGWFRQAPGKEREGVASIDSDGSTSYTDSVKGRFTISKDNAKNTLYLQMNSLKPEDTAMYYCALDLMSTVVPGFCGFLLSAGMDYWGKGTQVTVSSGGGSQVQLQESGGGSVEAGGSLRLSCAASGYTHSSYCMGWFRQAPGKEREGVAAIDVDGSTTYADSVKGRFTISKDNAKNTLYLQMNSLKPEDTGMYYCAAEFADCSSNYFLPPGAVRYWGQGTQVTVSSASHHHHHH	0.75 Abs 630	0.53 Abs 630
IL10R binding molecule of SEQ ID NO: 268 (bispecific antibody) QVQLQESGGGSVQAGGSLRLSCAASRFTYSSYCMGWFRQAPGKEREGVASIDSDGSTSYTDSVKGRFTISKDNAKNTLYLQMNSLKPEDTAMYYCALDLMSTVVPGFCGFLLSAGMDYWGKGTQVTVSSGGGSQVQLQESGGGSVQAGGSLRLSCAASGYSYSSYCMGWFRQAPGKEREGVATIDSDGMTRYADSVKGRFTISKDNAKNTLYLQMNSLKPEDTAMYYCAAPLYDCDSGAVGRNPPYWGQGTQVTVSSASHHHHHH	0.53 Abs 630	0.41 Abs 630
IL10R binding molecule of SEQ ID NO: 269 (bispecific antibody) QVQLQESGGGSVQAGGSLRLSCAASRFTYSSYCMGWFRQAPGKEREGVASIDSDGSTSYTDSVKGRFTISKDNAKNTLYLQMNSLKPEDTAMYYCALDLMSTVVPGFCGFLLSAGMDYWGKGTQVTVSSGGGSQVQLQESGGGSVQTGGSLRLSCAASGYTYLRGCMGWFRQAPGKEREGVAVMDVVGDRRSYIDSVKGRFTISRDNAANSVYLQMDNLKPEDTAMYYCTAGPNCVGWRSGLDYWGQGTQVTVSSASHHHHHH	0.46 Abs 630	0.37 Abs 630
IL10R binding molecule of SEQ ID NO: 256 (bispecific antibody) QVQLQESGGGSVQAGGSLRLSCAASRYLYSIDYMAWFRQSPGKEREPVAVIYTASGATFYPDSVKGRFTISQDNAKMTVYLQMNSLKSEDTAMYYCAAVRKTDSYLFDAQSFTYWGQGTQVTVSSGGGSQVQLQESGGGSVQAGGSLRLSCAASGYTYSSGCMGWFRQAPGKEREAVAAINSDGSTSYADSVKGRFTISKDNAKNTLYLQMNSLKPEDTAMYYCAAEPYCSGGYPRWSVAEFGYWGQGTQVTVSSASHHHHHH	0.49 Abs 630	0.39 Abs 630
IL10R binding molecule of SEQ ID NO: 270 (bispecific antibody) QVQLQESGGGSVQAGGSLRLSCAASGYTYSMYCMGWFRQAPGKEREGVAQINSDGSTSYADSVKGRFTISKDNAKNTLYLQMNSLKPEDTAMYYCAADSRVYGGSWYERLCGPYTYEYNYWGQGTQVTVSSGGGSQVQLQESGGGSVQAGGSLRLSCAASGYTYSSGCMGWFRQAPGKEREAVAAINSDGSTSYADSVKGRFTISKDNAKNTLYLQMNSLKPEDTAMYYCAAEPYCSGGYPRWSVAEFGYWGQGTQVTVSSASHHHHHH	1.41 Abs 630	0.73 Abs 630
